The chains are these.
T1: Human GPR7 (human, UniProt P48145 1-328)
T1 sequence: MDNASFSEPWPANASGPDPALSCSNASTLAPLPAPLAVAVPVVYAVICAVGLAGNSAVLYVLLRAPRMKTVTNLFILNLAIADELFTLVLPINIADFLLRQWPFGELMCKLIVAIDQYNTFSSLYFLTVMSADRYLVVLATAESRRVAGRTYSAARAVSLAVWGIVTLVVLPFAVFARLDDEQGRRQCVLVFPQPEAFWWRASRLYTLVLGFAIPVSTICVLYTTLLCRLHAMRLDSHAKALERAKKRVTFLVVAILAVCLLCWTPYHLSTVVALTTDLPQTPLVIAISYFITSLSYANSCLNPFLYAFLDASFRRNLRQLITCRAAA

T2: TGR26, rat-derived G protein-coupled receptor protein (rat, UniProt Q56UD9 1-329)
T2 construct: Expressed in CHO dhfr- cells from pAK-rGPR7; also called rat TGR26; TGR26 receptor
T2 sequence: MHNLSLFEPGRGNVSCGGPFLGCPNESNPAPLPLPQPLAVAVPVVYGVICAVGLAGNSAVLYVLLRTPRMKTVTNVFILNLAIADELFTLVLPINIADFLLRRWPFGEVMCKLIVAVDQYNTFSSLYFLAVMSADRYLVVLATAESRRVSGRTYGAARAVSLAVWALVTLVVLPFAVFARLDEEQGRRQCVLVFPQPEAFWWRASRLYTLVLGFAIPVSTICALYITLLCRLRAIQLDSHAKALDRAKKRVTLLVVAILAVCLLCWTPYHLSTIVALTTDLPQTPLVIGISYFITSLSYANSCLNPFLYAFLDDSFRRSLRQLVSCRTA

B1: human homologue of GPR8 ligand peptide consisting of 30 residues (peptide)
peptide: WYKHVASPRYHTVGRAAGLLMGLRRSPYLW
notes: also called hGPR8L(1-30); Human GPR8 ligand (1-30)
B2: porcine GPR8 ligand (1-23) (peptide)
peptide: WYKHTASPRYHTVGRAAGLLMGL
notes: also called pGPR8L(1-23); porcine homologue of GPR8 ligand peptide
B3: Fmoc-added Human GPR8L (1-23) (peptide)
peptide: XYKHVASPRYHTVGRAAGLLMGL
modifications: N-terminal Fmoc (N-9-fluorenylmethoxycarbonyl) on Trp 1
notes: also called Fmoc-hGPR8L(1-23); Human GPR8 ligand (1-23) modified by Fmoc

T3 sequence (P48146 whole entry): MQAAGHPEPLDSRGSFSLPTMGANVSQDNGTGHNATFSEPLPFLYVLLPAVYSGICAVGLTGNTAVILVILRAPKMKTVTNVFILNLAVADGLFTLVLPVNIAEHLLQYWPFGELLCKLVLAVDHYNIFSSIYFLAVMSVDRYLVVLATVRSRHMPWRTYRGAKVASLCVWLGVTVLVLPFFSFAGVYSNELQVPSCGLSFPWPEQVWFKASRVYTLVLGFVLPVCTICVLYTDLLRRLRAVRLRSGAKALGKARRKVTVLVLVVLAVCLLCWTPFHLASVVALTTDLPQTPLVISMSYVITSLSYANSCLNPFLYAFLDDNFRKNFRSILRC

One experiment concerns the target T1, Human GPR7. In words: cell-based or functional assay.
Turning to B1, the “inhibition of intracellular cAMP production (IC50)” value is 0.13 nM.

Another experiment has as its target T3, Human GPR8 receptor protein (human, UniProt P48146 1-333). In words: cell-based or functional assay.
As for WYKHVASPRYHTVGRAAGL (also called hGPR8L(1-19)) [Human GPR8 ligand (1-19)], the “Promoting activity to GTPγS binding (EC50 nM)” value (“Promoting activity” for short) came to 1000 nM.
Consider WYKHVASPRYHTVGRAAGLLXGL (methionine sulfoxide, Met(O), at position 21, also called [MET(O)]-hGPR8L(1-23)) [Human GPR8 ligand (1-23) oxidant], for which the “Promoting activity” value turned out to be 1.4 nM.
Turning to B2, the “Promoting activity” value stood at 1.5 nM.
Turning to YKHVASPRYHTVGRAAGLLMGL (also called hGPR8L(2-23)) [Human GPR8 ligand (2-23)], the “Promoting activity” value amounted to 3900 nM.
On the same count and under the same terms, the same measure for WYKHVASPRYHTVGRAAGLL (also called hGPR8L(1-20)) [Human GPR8 ligand (1-20)]: 0.86 nM; for B3: 240 nM.

The target of another experiment is T1, Human GPR7. In words: cell-based or functional assay. The source holds these as a separate data set.
Regarding WYKHVASPRYHTVGRAAGL (also called hGPR8L(1-19)) [Human GPR8 ligand (1-19)], the “Promoting activity” value came to 84 nM.
For WYKHVASPRYHTVGRAAGLLXGL (methionine sulfoxide, Met(O), at position 21, also called [MET(O)]-hGPR8L(1-23)) [Human GPR8 ligand (1-23) oxidant], the “Promoting activity” value was determined as 1.6 nM.
Turning to B2, the “Promoting activity” value stood at 0.35 nM.
With YKHVASPRYHTVGRAAGLLMGL (also called hGPR8L(2-23)) [Human GPR8 ligand (2-23)], the “Promoting activity” value was 7410 nM.
As for WYKHVASPRYHTVGRAAGLL (also called hGPR8L(1-20)) [Human GPR8 ligand (1-20)], the “Promoting activity” value was 0.88 nM.
Still for that read-out and setting: the same measure for B3: 6.6 nM; for B1: 0.67 nM.

A further experiment deals with T3, Human GPR8 receptor protein. In words: competition with [125I-Tyr10]-hGPR8L(1-23), membrane fraction of GPR8 expressing CHO cells. The protocol:
Cell membrane fraction prepared from Human GPR8 expressing cells was diluted to various concentration with assay buffer (25 mM Tris-HCl, 5 mM EDTA, 0.05% CHAPS (3-[(3-Cholamidopropyl) Dimethyl-Ammonio]-1-Propanesulfonate), 0.1% BSA, 0.25 mM PMSF, 1 μg/ml Pepstatin, 20 μg/ml Leupeptin, pH7.4), and 200 μl each of the diluent was dispensed into polypropilene test tube (Falcon 2053). In order to determine an amount of maximum binding (TB), […] of DMSO and 2 μl of 7 nM [¹²⁵I-Tyr²]-hGPR8L(1-23) or [¹²⁵I-Tyr¹⁰]-hGPR8L(1-23) were added to the membrane fraction solution. Further, in order to determine a non-specific binding (NSB), 2 μt of 100 μM hGPR8L(1-23)/DMSO solution and 2 μl of 7 nM [¹²⁵I]-Tyr²]-hGPR8L(1-23) or [¹²⁵I-Tyr¹⁰]-hGPR8L(1-23) were added to the membrane fraction solution. The reaction was done at 25° C. for 60 minutes, and the reaction mixture was filtered by suction filtration using Whatman glassfilter (GF-F) treated with polyethyleneimine. After filtration, a radioactivity remaining on the filter was counted using γ-counter, and an amount of specific binding (SB) was estimated by subtracting an amount of non-specific binding from an amount of maximum binding. Since the specific binding in the case where [¹²⁵I-Tyr¹⁰]-hGPR8L(1-23) was used, was twice as much as that in the case where [¹²⁵1-Tyr²]-hGPR8L(1-23) was used, in practice, [¹²⁵I-Tyr¹⁰]-hGPR8L(1-23) was used in the assay. When the concentration of membrane fraction was changed, a specific binding of [¹²⁵I-Tyr¹⁰]-hGPR8L(1-23) was perceived depending on the concentration of membrane fraction.
A receptor binding activity of human- and porcine-homologue derivatives of GPR8 ligand peptide, wherein the synthesis method has been described in the specification, was measured using a membrane fraction of GPR8 expressing CHO cells and [¹²⁵-Tyr¹⁰]-hGPR8L(1-23) by the method described in Reference Example 43.
As to WYKHVASPRYHTVGRAAGL (also called hGPR8L(1-19)) [Human GPR8 ligand (1-19)], the IC50 stood at 100 nM. That is a sub-micromolar value.
Same read-out and setting: with WYKHVASPRYHTVGRAAGLLXGL (methionine sulfoxide, Met(O), at position 21, also called [MET(O)]-hGPR8L(1-23)) [Human GPR8 ligand (1-23) oxidant] the figure was 0.31 nM; with B2, 0.38 nM; with YKHVASPRYHTVGRAAGLLMGL (also called hGPR8L(2-23)) [Human GPR8 ligand (2-23)], 160 nM.
On the same count and under the same terms, with WYKHVASPRYHTVGRAAGLL (also called hGPR8L(1-20)) [Human GPR8 ligand (1-20)] the figure was 0.2 nM.
Turning to B3, the IC50 amounted to 0.2 nM.

Another experiment has as its target T1, Human GPR7. In words: competition with [125I-Tyr10]-hGPR8L(1-23), membrane fraction of GPR7 expressing CHO cells.
As for WYKHVASPRYHTVGRAAGL (also called hGPR8L(1-19)) [Human GPR8 ligand (1-19)], the IC50 amounted to 1.7 nM. This lies in the single-digit nanomolar range.
WYKHVASPRYHTVGRAAGLLXGL (methionine sulfoxide, Met(O), at position 21, also called [MET(O)]-hGPR8L(1-23)) [Human GPR8 ligand (1-23) oxidant] had an IC50 of 0.17 nM.
Molecule B2 showed an IC50 of 0.066 nM.
On the same count and under the same terms, with YKHVASPRYHTVGRAAGLLMGL (also called hGPR8L(2-23)) [Human GPR8 ligand (2-23)] the figure was 140 nM; with WYKHVASPRYHTVGRAAGLL (also called hGPR8L(1-20)) [Human GPR8 ligand (1-20)], 0.094 nM.
Molecule B3 gave an IC50 of 0.14 nM.
B1 yielded an IC50 of 0.025 nM. This IC50 is about 5.6-fold lower than that of the molecule before.

The next experiment has as its target T2, TGR26, rat-derived G protein-coupled …. Description: competition with [125I-Tyr10]-hGPR8L(1-23), membrane fraction of TGR26 expressing CHO cells. The protocol:
Cell membrane fraction prepared from TGR26 expressing cells was diluted to various concentration with assay buffer (25 mM Tris-HCl, 5 mM EDTA, 0.05% CHAPS (3-[(3-Cholamidopropyl) Dimethyl-Ammonio]-1-Propanesulfonate), 0.1% BSA, 0.5 mM PMSF, 1 μg/ml Pepstatin, 20 μg/ml Leupeptin, 4 μg/ml E-64, pH7.4), and 200 μl each of the diluent was dispensed into polypropilene test tube (Falcon 2053). In order to determine an amount of maximum binding, 2 μl of DMSO and 2 μl of 7 nM [¹²⁵-Tyr¹⁰]-hGPR8L(1-23) were added to the membrane fraction solution. Further, in order to determine a non-specific binding, 2 μl of 100 μM hGPR8L(1-23)/DMSO solution and 2 μl of 7 nM [¹²⁵I]-Tyr¹⁰]-hGPR8L(1-23) were added to the membrane fraction solution. The reaction was done at 25° C. for 75 minutes, and the reaction mixture was filtered by suction filtration using Whatman glassfilter (GF-F) treated with polyethyleneimine. In addition, the filter was washed twice with 1.5 ml of washing buffer (25 mM Tris-HCl, 5 mM EDTA, 0.05% CHAPS, 0.1% BSA, pH7.4). After filtration, a radioactivity remaining on the filter was counted using γ-counter, and an amount of specific binding was estimated by subtracting an amount of non-specific binding from an amount of maximum binding.
A receptor binding activity of human- and porcine-homologue derivatives of GPR8 ligand peptide obtained in the reference examples was measured using a membrane fraction of TGR26 expressing CHO cells and [¹²⁵I-Tyr¹⁰]-hGPR8L(1-23) by the method described in Reference Example 73.
For the molecule WYKHVASPRYHTVGRAAGL (also called hGPR8L(1-19)) [Human GPR8 ligand (1-19)], the IC50 was found to be 9.9 nM.
Still for that read-out and setting: the same measure for WYKHVASPRYHTVGRAAGLLXGL (methionine sulfoxide, Met(O), at position 21, also called [MET(O)]-hGPR8L(1-23)) [Human GPR8 ligand (1-23) oxidant]: 0.29 nM; for B2: 0.12 nM; for YKHVASPRYHTVGRAAGLLMGL (also called hGPR8L(2-23)) [Human GPR8 ligand (2-23)]: 240 nM.
For WYKHVASPRYHTVGRAAGLL (also called hGPR8L(1-20)) [Human GPR8 ligand (1-20)], the IC50 was 0.17 nM.
On the same count and under the same terms, the same measure for B3: 0.23 nM.

Broadly, the IC50 is the point on the concentration scale where inhibition reaches its midpoint. Low values mean greater potency, high ones weaker potency.

The values are drawn from US20050124539A1 (Takeda / Millennium, published 2005).
